Assay results: paper doi:10.1101/2022.10.11.511834 (bioRxiv, 2022)
Numbering of substitutions follows the chain as printed. Numbers in names are those of the source. Blank lines part the entries; values can stand above or below the binder they belong to.

Experiments:
ubiquitin = ubiquitin (UniProt P0CG48 1-76); assay: crystal structure
M1-linked di-Ub = M1-linked di-Ub (UniProt P0CG48); assay: ITC

binding result (ubiquitin): binds
B1: HOIL-1 233-510 (C460A) (domain or fragment)
chain: DEEERARLAGEEEALRQYQQRKQQQQEGNYLQHVQLDQRSLVLNTEPAECPVCYSVLAPGEAVVLRECLHTFCRECLQGTIRNSQEAEVSCPFIDNTYSCSGKLLEREIKALLTPEDYQRFLDLGISIAENRSAFSYHCKTPDCKGWCFFEDDVNEFTCPVCFHVNCLLCKAIHEQMNCKEYQEDLALRAQNDVAARQTTEMLKVMLQQGEAMRCPQCQIVVQKKDGADWIRCTVCHTEICWVTKGPRWGPGGPGDTSGGCRCRVNGIPCHPSCQNCH

Kd (M1-linked di-Ub): ~50 µM
B2: HOIL-1 233-510 (helix-RBR), wild type (domain or fragment)
chain: B1 chain with A228C

binding result (ubiquitin): binds
B3: RNF216 (511-784, C688A, pSer719) (domain or fragment)
chain: QLIECRCCYGEFPFEELTQCADAHLFCKECLIRYAQEAVFGSGKLELSCMEGSCTCSFPTSELEKVLPQTILYKYYERKAEEEVAAAYADELVRCPSCSFPALLDSDVKRFSCPNPHCRKETCRKCQGLWKEHNGLTCEELAEKDDIKYRTSIEEKMTAARIRKCHKCGTGLIKSEGANRMSCRCGAQMCYLCRVSINGYDHFCQHPRSPGAPCQECSRCSLWTDPTEDDEKLIEEIQKEAEEEQKRKNGENTFKRIGPPLEKPVEKVQRVEAL
modifications: phosphoserine at 719
